US20260242485A1 (LEPU BIOPHARMA, published 2026)
Read-outs that look alike come from different tables or passages of the source.

B1: P2C47-hIgG1 LALAPG (antibody)
heavy: QVQLVQSGAEVKKPGESLKVSCKASGYTFTSYYMHWVRQAPGQGLEWMGAIEPMYGSTSYAQKFQGRVTMTRDTSTSTVYMELSSLRSEDTAVYYCARGSAYYYDFADYWGQGTLVTVSSASTKGPSVFPLAPSSKSTSGGTAALGCLVKDYFPEPVTVSWNSGALTSGVHTFPAVLQSSGLYSLSSVVTVPSSSLGTQTYICNVNHKPSNTKVDKKVEPKSCDKTHTCPPCPAPEAAGGPSVFLFPPKPKDTLMISRTPEVTCVVVDVSHEDPEVKFNWYVDGVEVHNAKTKPREEQYNSTYRVVSVLTVLHQDWLNGKEYKCKVSNKALGAPIEKTISKAKGQPREPQVYTLPPSREEMTKNQVSLTCLVKGFYPSDIAVEWESNGQPENNYKTTPPVLDSDGSFFLYSKLTVDKSRWQQGNVFSCSVMHEALHNHYTQKSLSLSPGK
light: SYVLTQPSSVSVAPGQTATISCGGHNIGSKNVHWYQQRPGQSPVLVIYQDNKRPSGIPERFSGSNSGNTATLTISGTQAMDEADYYCQVWDNYSVLFGGGTKLTVLGQPKANPTVTLFPPSSEELQANKATLVCLISDFYPGAVTVAWKADGSPVKAGVETTKPSKQSNNKYAASSYLSLTPEQWKSHRSYSCQVTHEGSTVEKTVAPTECS
notes: also called benchmark antibody P2C47
B2: 45H6E8-hIgG1 LALAPG (antibody)
heavy: EVQLQQSGAELVRSGASVKLSCTASGFNIKDYYMQWVKQRPEQGLEWIGWIDPENGDTEYAPKFQGKATMTADTSSNTAYLQLSSLTSEDTAVYYCTTGGNYVDWGQGTTLTVSSASTKGPSVFPLAPSSKSTSGGTAALGCLVKDYFPEPVTVSWNSGALTSGVHTFPAVLQSSGLYSLSSVVTVPSSSLGTQTYICNVNHKPSNTKVDKKVEPKSCDKTHTCPPCPAPEAAGGPSVFLFPPKPKDTLMISRTPEVTCVVVDVSHEDPEVKFNWYVDGVEVHNAKTKPREEQYNSTYRVVSVLTVLHQDWLNGKEYKCKVSNKALGAPIEKTISKAKGQPREPQVYTLPPSREEMTKNQVSLTCLVKGFYPSDIAVEWESNGQPENNYKTTPPVLDSDGSFFLYSKLTVDKSRWQQGNVFSCSVMHEALHNHYTQKSLSLSPGK
light: DIVMTQSQKFMSTSVGDRVSITCKASQNVGTAVAWYQQKPGQSPKLLIYSASNRYTGVPDRFTGSGSGTDFTLTISNMQSEDLADYFCQQYSSYPLLTFGAGTNLELKRTVAAPSVFIFPPSDEQLKSGTASVVCLLNNFYPREAKVQWKVDNALQSGNSQESVTEQDSKDSTYSLSSTLTLSKADYEKHKVYACEVTHQGLSSPVTKSFNRGEC
notes: also called 45H6E8 chimeric antibody

How the values were obtained:
[1] = biological target: T1, human CD16A-158F expressed on CHO-K1 cells (human, UniProt P08637 17-254); assay: flow cytometry, CHO-K1-hCD16A-158F cells, geometric mean
T1 construct: whole, on cells
T1 sequence (P08637 17-254): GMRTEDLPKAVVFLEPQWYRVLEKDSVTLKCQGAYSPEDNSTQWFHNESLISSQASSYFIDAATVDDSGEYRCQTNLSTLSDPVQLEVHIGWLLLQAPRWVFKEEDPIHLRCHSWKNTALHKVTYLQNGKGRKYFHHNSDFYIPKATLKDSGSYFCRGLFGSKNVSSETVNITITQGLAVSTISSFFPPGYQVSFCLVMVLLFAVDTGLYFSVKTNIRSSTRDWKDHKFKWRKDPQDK

[2] = biological target: T1, human CD16A-158F expressed on CHO-K1 …; assay: as above; remark: listed apart in the source
Procedure: (§1) In order to evaluate the binding activity of the chimeric mAbs to human CD16A expressed on cells, cell-based binding assay was employed as followed. […] The antibody dilutions were incubated with 1×10⁵ indicated cells in the 96-well microplate for one hour at 4° C. The antibodies binding to the antigen on the cell surface were detected with PE fluorophore-conjugated anti-human IgG Fc secondary antibodies (ThermoFisher scientific, Cat. No. 12-4998-82) at a dilution rate of 1:1000. Cells were analyzed by flow cytometer LSRFortessa Cell Analyzer (BD Biosciences). Data were analyzed with Flowjo 10.0 software. The graph and statistics analysis were generated with four-parameter nonlinear regression curve fit in Graphpad Prism 9 software.
(§2) The assay was performed following the protocol described above.

[3] = biological target: T2, human CD16A-158V expressed on CHO-K1 cells (human, UniProt P08637 17-254); assay: flow cytometry, CHO-K1-hCD16A-158V cells, geometric mean
T2 construct: whole, on cells; also called hCD16A-158V; CHO-K1-hCD16A-158V
T2 sequence (P08637 17-254 F176V): as the sequence (P08637 17-254) above, with F160V counted along it
Procedure: as §1, §2

[4] = biological target: T1, human CD16A-158F expressed on CHO-K1 …; assay: flow cytometry on antigen-expressing CHO-K1 cells
Procedure: as §1
(§3) CHO-K1 cells stably expressing cynomolgus CD16 were used in the following test.

[5] = biological target: T3, cynomolgus CD16 expressed on CHO-K1 cells (cynomolgus, UniProt Q8SPW2 17-254); assay: flow cytometry on antigen-expressing CHO-K1 cells
T3 construct: whole, on cells; also called cyno CD16; CHO-K1-cynoCD16
T3 sequence (Q8SPW2 17-254): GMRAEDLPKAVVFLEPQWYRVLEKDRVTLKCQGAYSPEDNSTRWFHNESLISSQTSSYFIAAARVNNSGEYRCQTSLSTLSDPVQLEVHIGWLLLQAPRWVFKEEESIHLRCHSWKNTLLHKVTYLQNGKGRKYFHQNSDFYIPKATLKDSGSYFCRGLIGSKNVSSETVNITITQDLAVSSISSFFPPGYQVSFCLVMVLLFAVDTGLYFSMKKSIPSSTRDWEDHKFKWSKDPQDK
Procedure: as §1, §3

[6] = biological target: T2, human CD16A-158V expressed on CHO-K1 …; assay: flow cytometry on antigen-expressing CHO-K1 cells
Procedure: as §1, §3

[7] = biological target: T4, human CD16B-NA2 ECD his tag protein (human, UniProt O75015 17-200); assay: ELISA, hCD16B-NA2-his coated at 2 ug/mL, OD450
T4 construct: extracellular domain; Bought protein; also called hCD16B-NA2-his; hCD16B-NA2 protein
T4 sequence (O75015 17-200 N65S limits assumed): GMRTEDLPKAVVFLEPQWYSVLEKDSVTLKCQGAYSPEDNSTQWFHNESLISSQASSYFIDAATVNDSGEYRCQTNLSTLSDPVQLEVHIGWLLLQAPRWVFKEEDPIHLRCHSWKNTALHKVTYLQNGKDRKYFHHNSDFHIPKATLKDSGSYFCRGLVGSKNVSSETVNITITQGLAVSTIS
Procedure: (§4) In order to determine the binding ability of the chimeric Abs to human CD16A protein, ELISA-based binding assay was performed as followed. […] The mixture was incubated for 1 hour at room temperature (RT). The primary antibody was recognized by a detective antibody against human IgG Fc which was conjugated with horseradish peroxidase (HRP) (Jackson Immuno, Cat. No. 109-035-008). Tetramethylbenzidine (TMB), a substrate of HRP, was added to the wells to visualize the binding signal. After sufficient color development, stop solution was added to the wells. The absorbance of the signal was detected at 450 nm with Envision multilabel plate readers (PerkinElemer). The graph and statistics analysis were generated with four-parameter nonlinear regression curve fit in Graphpad Prism 9 software.
(§5) In order to determine the binding ability of the chimeric Abs to human CD16B protein, ELISA binding assay was performed as previously described. Three spliced isoforms of CD16B including human CD16B-NA1 ECD his tag protein (hCD16B-NA1-his, Acro Bio, Cat: No. CDB-H5227), human CD16B-NA2 ECD his tag protein (hCD16B-NA2-his, Acro Bio, Cat: No. CDB-H82Ea) and human CD16B-SH-his protein, were used as the coating antigens at 2 μg/mL.

[8] = biological target: T2, human CD16A-158V expressed on CHO-K1 …; assay: flow cytometry, CHO-K1-hCD16A-158V cells, geometric mean; remark: listed apart in the source
[9] = biological target: T3, cynomolgus CD16 expressed on CHO-K1 …; assay: flow cytometry, CHO-K1-cyno CD16 cells, geometric mean
Procedure: as §1, §2

[10] = biological target: T5, human CD16B-NA1 ECD his tag protein (human, UniProt O75015 17-200); assay: ELISA, hCD16B-NA1-his coated at 2 ug/mL, OD450
T5 construct: extracellular domain; Bought protein; also called hCD16B-NA1-his; hCD16B-NA1 protein
T5 sequence (O75015 other isoform, or with tags, fused parts or gaps limits assumed): as the sequence (O75015 17-200 N65S limits assumed) above, with S20R, S49N, N66D, I90V counted along it
Procedure: as §4, §5

| Binder | EC50 (read off the curve) [1] [nM] | EC50 (read off the curve) [2] [nM] | EC50 (read off the curve) [3] [nM] | EC50 [4] [nM] | EC50 [5] [nM] | EC50 [6] [nM] | binding result [7] | EC50 (read off the curve) [8] [nM] | EC50 (read off the curve) [9] [nM] | binding result [10] |
| --- | --- | --- | --- | --- | --- | --- | --- | --- | --- | --- |
| B1 | ~0.5 | ~0.4 | ~0.4 | 0.57 | 1.74 | 0.61 | no binding (tested: 20 nM) | ~0.5 | ~0.7 | no binding (tested: 20 nM) |
| B2 | ~0.5 | ~0.4 | ~0.4 | 0.4 | 1.74 | 0.36 | no binding (tested: 20 nM) | ~0.5 | ~0.7 | no binding (tested: 20 nM) |
